Results reported in patent US20020099172A1.

Molecular target: Xwnt-8 (Xenopus) (UniProt P28026)
Experiment: cell-based or functional assay

Chain of UniProt P28026 (P28026 23-358 limits assumed): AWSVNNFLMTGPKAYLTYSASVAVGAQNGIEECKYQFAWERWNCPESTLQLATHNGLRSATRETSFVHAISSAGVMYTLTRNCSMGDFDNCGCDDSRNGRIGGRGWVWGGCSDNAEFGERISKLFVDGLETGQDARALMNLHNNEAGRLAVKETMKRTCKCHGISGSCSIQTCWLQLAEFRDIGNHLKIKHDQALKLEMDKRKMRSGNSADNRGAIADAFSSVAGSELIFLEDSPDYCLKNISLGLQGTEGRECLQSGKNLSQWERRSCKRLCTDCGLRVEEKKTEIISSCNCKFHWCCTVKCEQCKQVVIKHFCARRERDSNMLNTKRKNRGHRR

embryos with secondary axes after injection of frzb-1 mRNA (animal blastomeres) and Xwnt-8 mRNA (vegetal-ventral blastomere); Xwnt-8 alone gave complete secondary axes in 67% of the embryos (n=53): 14%
Substance: frzb-1 (Xenopus, expressed from injected mRNA)
